Assay results published in paper PMC10572825 (2023).

Biological target: Tenascin-C (Mus musculus, UniProt Q80YX1, FITC-labelled tenascin-C)
Assay: isothermal fluorescence titration

B1: CCL26 (protein)
chain: TRGSDISKTCCFQYSHKPLPWTWVRSYEFTSNSCSQRAVIFTTKRGKKVCTHPRKKWVQKYISLLKTPKQL
With B1 the Kd was 270 nM.
